Data published in patent US20180142032A1 (Sanofi, published 2018).
Where two headings read alike, the source gives them in different places.

What was measured:
[1] = target: T1, human LAMP1 at the cell surface (human, UniProt P11279 29-417); experiment: cell-based or functional assay
T1 sequence: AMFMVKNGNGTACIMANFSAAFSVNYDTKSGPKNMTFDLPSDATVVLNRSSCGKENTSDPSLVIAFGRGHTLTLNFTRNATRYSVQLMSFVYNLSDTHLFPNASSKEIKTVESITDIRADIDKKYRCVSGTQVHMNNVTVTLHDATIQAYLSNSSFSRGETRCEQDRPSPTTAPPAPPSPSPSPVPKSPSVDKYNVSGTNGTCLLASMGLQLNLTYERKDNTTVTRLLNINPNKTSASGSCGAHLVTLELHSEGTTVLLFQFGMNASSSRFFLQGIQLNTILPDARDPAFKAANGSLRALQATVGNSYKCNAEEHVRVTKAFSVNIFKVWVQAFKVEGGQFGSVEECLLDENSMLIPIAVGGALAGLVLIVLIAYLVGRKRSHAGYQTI

[2] = target: T1, human LAMP1 at the cell surface; experiment: flow cytometry, HCT116 huLAMP1 clone 8
Protocol: HCT116 cells were infected by a lentiviral vector allowing stable integration of the human or the cynomolgus LAMP1 CDS in genomic DNA of cells. Individual clones with different densities of human or cynomolgus LAMP1 cell surface localization were derived from a pool of HCT116 infected cells. […] 100 μL/well of goat anti-human IgG conjugated with Alexa488 (Invitrogen; # A11013) was added for 1 h at 4° C. and washed two times with PBS 1% BSA. The antibody binding was evaluated after centrifugation and resuspension of cells in 100 μl fixing solution (paraformaldehyde at 4% in PBS). Samples were read using Galaxy® Flow Cytometry System (Partec). EC50 values were estimated using BIOST@T-SPEED software.

[3] = target: T2, cynomolgus monkey LAMP1 at the cell surface (cynomolgus monkey, UniProt P11279 29-417 (human entry)); experiment: flow cytometry, HEK293 cynoLAMP1 clone 44
T2 construct: also called cynoLAMP1; cynomolgus LAMP1
T2 chain: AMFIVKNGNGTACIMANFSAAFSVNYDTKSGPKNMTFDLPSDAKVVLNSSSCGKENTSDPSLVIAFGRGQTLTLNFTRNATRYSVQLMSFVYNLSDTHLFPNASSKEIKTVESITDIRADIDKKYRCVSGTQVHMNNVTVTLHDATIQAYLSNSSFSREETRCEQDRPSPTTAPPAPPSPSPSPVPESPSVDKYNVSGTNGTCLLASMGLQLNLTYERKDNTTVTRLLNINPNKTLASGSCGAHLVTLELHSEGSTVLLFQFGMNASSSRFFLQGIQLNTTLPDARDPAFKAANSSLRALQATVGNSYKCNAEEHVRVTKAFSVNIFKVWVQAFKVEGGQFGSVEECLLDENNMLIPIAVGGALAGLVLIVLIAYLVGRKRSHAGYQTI

[4] = target: T3, LAMP1::histag (human, UniProt P11279 29-382); experiment: SPR (BIAcore 2000), mAb captured by anti-Fc, LAMP1 injected 1 to 256 nM
T3 construct: extracellular domain without signal peptide, C-terminal 6 His tag, made in HEK293 cells; also called recombinant human LAMP1; human LAMP1 (29-382)
T3 sequence: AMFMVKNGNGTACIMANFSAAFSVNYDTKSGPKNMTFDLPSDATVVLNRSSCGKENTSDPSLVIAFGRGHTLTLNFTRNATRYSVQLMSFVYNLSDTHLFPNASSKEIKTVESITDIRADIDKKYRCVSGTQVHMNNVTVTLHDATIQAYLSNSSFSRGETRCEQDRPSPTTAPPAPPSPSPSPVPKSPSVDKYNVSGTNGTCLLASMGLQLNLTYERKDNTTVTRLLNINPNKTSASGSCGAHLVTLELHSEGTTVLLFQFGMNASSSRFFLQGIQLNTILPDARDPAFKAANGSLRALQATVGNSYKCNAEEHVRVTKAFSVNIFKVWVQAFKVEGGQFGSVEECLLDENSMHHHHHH
Protocol: The binding kinetics of the murine, chimer or humanized anti-LAMP1 mAbs were determined by surface plasmon resonance assay using a BIAcore 2000 (BIAcore Inc., Uppsala, N.J.). […] A mouse anti-αhuman Fc IgG1 (BIAcore #BR-1008-39) and rabbit anti-αmurine Fc IgG1 (BIAcore #BR-1008-38) (50 μg/mL in […], pH5) were immobilized on the activated chips in all flow cells. The immobilization was carried out at a flow rate of 10 μL/min up to saturation. The chip was then blocked by injection of 70 μL of ethanolamine-HCl, pH 8.5, followed by one wash with 3 M MgCl₂ for anti-αhuman Fc IgG1 and one wash with 10 mM Glycine-HCl pH 1.7 for anti-αmurine Fc IgG1. To measure the binding of anti-LAMP1 mAbs to LAMP1, antibodies were used at 1-5 μg/mL in BIAcore running buffer (HBS-EP). […] Following completion of the injection phase, dissociation was monitored in a BIAcore running buffer at the same flow rate for 600 sec. […] Individual sensorgrams were analyzed using BIAevaluation software.

[5] = target: T2, cynomolgus monkey LAMP1 at the cell …; experiment: flow cytometry
[6] = target: T2, cynomolgus monkey LAMP1 at the cell …; experiment: flow cytometry, HEK293 cynoLAMP1 clone 44
[7] = target: T1, human LAMP1 at the cell surface; experiment: cell-based or functional assay; remark: listed apart in the source
[8] = target: T3, LAMP1::histag; experiment: ELISA on secreted human LAMP1

B1: DM4-SPDB-huMAb1_2 (antibody, human IgG1, kappa, V domains shown)
VH: QVQLVQSGAELVKPGASVKMSCKASGYIFTNYNIHWVKKSPGQGLEWIGAIYPGNGDAPYSQKFQDRATLTADTSSSTTYMELSSLTSEDSAVYYCVRANWDVAFAYWGQGTLVSVSS
VL: DIQMTQSPPSLSASVGGKVTITCKASQDIDRYMAWYQDKPGKGPKLLIHDTSTLQPGIPSRFSGSGSGRDYSFSISNLEPEDIATYYCLQYDNLWTFGGGTKLEIKR
modifications: DM4 linked through SPDB, average DAR 4.05 per antibody; sites not stated
B1 was tested, and the “cytotoxicity IC50, HCT116 huLAMP1 clone 8” value (shortened to “cytotoxicity IC50”) [1] was 0.07 nM.

B2: huMAb1_3 (antibody, human IgG1, kappa, V domains shown)
VH: QVQLVQSGAELVKPGASVKMSCKASGYIFTNYNIHWVRQAPGQGLEWIGAIYPGNGDAPYAQKFQGRATLTADTSSSTTYMELSSLTSEDTAVYYCVRANWDVAFAYWGQGTLVTVSS
VL: DIQMTQSPSSLSASVGGKVTITCKASQDIDRYMAWYQQKPGKGPKLLIHDTSTLQPGVPSRFSGSGSGRDYSLTISSLEPEDIATYYCLQYDNLWTFGGGTKLEIKR
notes: humanized, VH3-huIgG1 and VL3-huCk
B2 gave an EC50 [2] of 10.3 nM and an EC50 [3] of 17.7 nM.

B3: DM4-SPDB-huMAb1_3 (antibody, human IgG1, kappa, V domains shown)
VH: QVQLVQSGAELVKPGASVKMSCKASGYIFTNYNIHWVRQAPGQGLEWIGAIYPGNGDAPYAQKFQGRATLTADTSSSTTYMELSSLTSEDTAVYYCVRANWDVAFAYWGQGTLVTVSS
VL: DIQMTQSPSSLSASVGGKVTITCKASQDIDRYMAWYQQKPGKGPKLLIHDTSTLQPGVPSRFSGSGSGRDYSLTISSLEPEDIATYYCLQYDNLWTFGGGTKLEIKR
modifications: DM4 linked through SPDB, average DAR 3.5 per antibody; sites not stated
For B3, the “cytotoxicity IC50” value [1] was 0.12 nM.

B4: chMAb2can (antibody, human IgG1, kappa, V domains shown)
VH: QVQLQQSAAELARPGASVKMSCKASGYTFTSYTMHWVKQRPGQGLEWIGYFNPSSGYPEYNQKFKDKTTLTADKSSNTAFIQLNSLTSEDSAVYYCSRGYYYGSRGYALDFWGQGTSVTVSS
VL: NIVLTQSPASLAVSLGQRATISCRASESVDINGNTFMHWYQQKPGQSPKLLIYAASNLESGVPARFSGSGSGTDFTFTIDPVEADDVATYYCQQNIEDPWTFGGGTKLEIKR
B4 was tested, and the Kd [4] was 68.8 nM.

B5: DM4-SPDB-chMAb2 (antibody, human IgG1, kappa, V domains shown)
VH: QVQLQQSAAELARPGASVKMSCKASGYTFTSYTMHWVKQRPGQGLEWIGYFNPSSGYPEYNQKFKDKTTLTADKSSNTAFIQLNSLTSEDSAVYYCSRGYYYGSRGYALDFWGQGTSVTVSS
VL: NIVLTQSPASLAVSLGQRATISCRASESVDINGNTFMHWYQQKPGQSPKLLIYAASNLESGVPARFSGSGSGTDFTFTIDPVEADDVATYYCQQNIEDPWTFGGGTKLEIKR
modifications: DM4 linked through SPDB, average DAR 3.7 per antibody; sites not stated
notes: also called DM4-SPDB-chMAb2can
With B5 the “Ratio of EC50s (cynoLAMP1 against huLAMP1)” value (from here on “Ratio of EC50s”) [5] was 2.3, the “cytotoxicity IC50” value [1] was 0.07 nM and the EC50 [2] was 5.5 nM. For the same binder, the EC50 [6] was 12.8 nM.

B6: DM4-SPDB-chMAb1 (antibody, human IgG1, kappa)
heavy: not shown
light: DIQMTQSPPSLSASLGGKVTITCKASQDIDRYMAWYQDKPGKGPRLLIHDTSTLQPGIPSRFSGSGSGRDYSFSISNLEPEDIATYYCLQYDNLWTFGGGTKLEIKRTVAAPSVFIFPPSDEQLKSGTASVVCLLNNFYPREAKVQWKVDNALQSGNSQESVTEQDSKDSTYSLSSTLTLSKADYEKHKVYACEVTHQGLSSPVTKSFNRGEC
modifications: DM4 linked through SPDB, average DAR 4.5 per antibody; sites not stated
notes: antibody drug conjugate of chMAb1; also called chMAb1-SPDB-DM4
In the case of B6, the “Ratio of EC50s” value [5] is reported as 1, the “Cytotoxic activity IC50 (Cell Titer-Glo), HCT116-LAMP1 clone 5, antigen density 451 000” value [7] is reported as 0.2 nM and the “Cytotoxic activity IC50 (Cell Titer-Glo), HCT116-LAMP1 clone 8, antigen density 160 000” value [7] is reported as 0.1 nM. It also gave an EC50 [2] of 6.6 nM and an EC50 [6] of 6.6 nM.

B7: huMAb1_2 (antibody, human IgG1, kappa, V domains shown)
VH: QVQLVQSGAELVKPGASVKMSCKASGYIFTNYNIHWVKKSPGQGLEWIGAIYPGNGDAPYSQKFQDRATLTADTSSSTTYMELSSLTSEDSAVYYCVRANWDVAFAYWGQGTLVSVSS
VL: DIQMTQSPPSLSASVGGKVTITCKASQDIDRYMAWYQDKPGKGPKLLIHDTSTLQPGIPSRFSGSGSGRDYSFSISNLEPEDIATYYCLQYDNLWTFGGGTKLEIKR
notes: humanized, VH2-huIgG1 and VL2-huCk
Work on B7 yielded an EC50 [2] of 6.6 nM and an EC50 [3] of 13.3 nM.

B8: DM4-SPDB-chMAb3 (antibody, human IgG1, kappa, V domains shown)
VH: QIQLVQSGPELKKPGETVKISCKASGYIFTNYGMNWVKQAPGKGLKWMGWINTYTGESRYADDFKGRFALSLETSASTAYLQINNLENEDMATYFCAREDYYGNSPWFFDVWGAGTTVTVSS
VL: DIQMTQTTSSLSASLGDRVTISCRASQGINKYLNWYQQKPDGTVKLLIYYTSTLHSGVPSRFSGSGSGTDYSLTINNLEPEDIATYYCQQYTRLPFTFGSGTKLEIKR
modifications: DM4 linked through SPDB, average DAR 3.7 per antibody; sites not stated
For B8, the “Ratio of EC50s” value [5] was 0.7, the “cytotoxicity IC50” value [1] was 0.06 nM and the EC50 [2] was 9.1 nM. For the same binder, the EC50 [6] was 6.1 nM.

B9: chMAb3_VLR24-R93 (antibody, human IgG1, kappa, V domains shown)
VH: QIQLVQSGPELKKPGETVKISCKASGYIFTNYGMNWVKQAPGKGLKWMGWINTYTGESRYADDFKGRFALSLETSASTAYLQINNLENEDMATYFCAREDYYGNSPWFFDVWGAGTTVTVSS
VL: DIQMTQTTSSLSASLGDRVTISCRASQGINKYLNWYQQKPDGTVKLLIYYTSTLHSGVPSRFSGSGSGTDYSLTINNLEPEDIATYYCQQYTRLPFTFGSGTKLEIKR
notes: chimeric, human IgG1, Ckappa; VL with N24R and K93R
B9 was tested, and the Kd [4] was 7.2 nM.

B10: huMAb1_negB (antibody, human IgG1, kappa)
heavy: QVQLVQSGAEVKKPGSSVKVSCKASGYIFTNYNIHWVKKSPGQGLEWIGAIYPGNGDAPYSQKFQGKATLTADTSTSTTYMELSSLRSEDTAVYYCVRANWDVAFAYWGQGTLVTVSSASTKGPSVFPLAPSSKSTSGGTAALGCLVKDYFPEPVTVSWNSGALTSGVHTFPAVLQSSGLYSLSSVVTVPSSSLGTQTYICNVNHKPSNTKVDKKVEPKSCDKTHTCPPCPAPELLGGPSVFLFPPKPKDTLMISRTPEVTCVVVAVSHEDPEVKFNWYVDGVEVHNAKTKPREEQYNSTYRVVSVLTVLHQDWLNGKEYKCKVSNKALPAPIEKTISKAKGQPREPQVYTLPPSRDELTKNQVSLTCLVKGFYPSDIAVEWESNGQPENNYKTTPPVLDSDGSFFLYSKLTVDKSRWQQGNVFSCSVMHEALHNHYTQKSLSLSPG
light: DIQMTQSPSSLSASVGDRVTITCKASQDIDRYMAWYQDKPGKAPRLLIHDTSTLQSGVPSRFSGSGSGRDYTLTISNLEPEDFATYYCLQYDNLWTFGGGTKVEIKRTVAAPSVFIFPPSDEQLKSGTASVVCLLNNFYPREAKVQWKVDNALQSGNSQESVTEQDSKDSTYSLSSTLTLSKADYEKHKVYACEVTHQGLSSPVTKSFNRGEC
notes: LC1 and HCnegB (VH1-huIgG1_266A, D265A by Kabat)
With B10 the EC50 [8] was 0.07 nM.
